# From PMC11092324
# pKd: −log10 of the molar value.
# Biological target: CV-1A1 Fv-clasp (UniProt Q13043)
# Test: ELISA; sandwich ELISA: CV-1A1 Fv-clasp or scFv (0.7 µM in 50 mM carbonate buffer pH 9.6) coated on high-binding microplates, VLPs added in twofold serial dilutions, 37°C 2 h, detected with rabbit anti-VLP antisera; data fit to the Michaelis-Menten equation, Km taken as Kd (affinity or avidity); concentration counted as VP1
substance,measurement,value
GI.4 Chiba virus-like particles (VP1 major capsid protein of the norovirus GI.4 Chiba strain) (complex),pKd,8.42
